Test results as given in article PMC4731814.

Experiments:
[1] = target: tricellulin first extracellular loop fragment K217A (human) (UniProt Q8N4S9); assay: SPR; BIAcore X; tricellulin proteins amine-coupled on a CM5 chip; human PLG as analyte at 62.5-1000 nM; HBS-P buffer pH 7.4, 0.15 M NaCl, 37 °C, 30 μl/min; 1:1 Langmuir binding model
[2] = target: tricellulin first extracellular loop fragment K217A K252A (human) (UniProt Q8N4S9); assay: as above
[3] = target: tricellulin first extracellular loop fragment, wild type (human) (UniProt Q8N4S9); assay: as above
[4] = target: tricellulin second extracellular loop fragment (human) (UniProt Q8N4S9); assay: as above
[5] = target: tricellulin first extracellular loop fragment K252A (human) (UniProt Q8N4S9); assay: as above
[6] = target: human plasminogen; assay: ELISA; settings: bacteria OD600 = 0.6 bound to microtiter plates; 1 μM human PLG; parent: est. 0.29; read off a plot

In the case of human plasminogen (natural protein), the Kd [1] is reported as 183 nM, the koff [1] is reported as 0.0298 s⁻¹ and the kon [1] is reported as 165000 M⁻¹ s⁻¹. The Kd [2] was 1030 nM, the koff [2] was 0.0742 s⁻¹ and the kon [2] was 72400 M⁻¹ s⁻¹. It also gave a Kd [3] of 51.5 nM, a koff [3] of 7.13 s⁻¹ and a kon [3] of 1.39e+08 M⁻¹ s⁻¹. It also gave a Kd [4] of 1270 nM, a koff [4] of 0.214 s⁻¹ and a kon [4] of 169000 M⁻¹ s⁻¹. The Kd [5] was 3130 nM, the koff [5] was 0.0184 s⁻¹ and the kon [5] was 5890 M⁻¹ s⁻¹.

“streptococcal surface enolase on GAS strain NIH35 (wild type) (from UniProt P69949) K252L; K255L” was tested, and the response [6] was 0.23 A450.

“streptococcal surface enolase on GAS strain NIH35 (wild type) (from UniProt P69949) K252L; K255L; K434L; K435L” was tested, and the response [6] was 0.17 A450.

Work on “streptococcal surface enolase on GAS strain NIH35 (wild type) (from UniProt P69949) K434L; K435L” yielded a response [6] of 0.3 A450.
